From PMC3665079 (Biochemistry, 2013)
Where two headings read alike, the source gives them in different places.

How the values were obtained:
[1] = molecular target: DnaT N-terminal core domain (E. coli); experiment: fluorescence polarisation
[2] = molecular target: DnaT N-terminal core domain (E. coli); experiment: fluorescence polarisation; remark: listed apart in the source
AUC = molecular target: the molecule itself; experiment: AUC
[3] = molecular target: the molecule itself; experiment: fluorescence polarisation

dH [1] [kJ/mol]	dH [2] [kJ/mol]	Molecule	stoichiometry N (AUC)	dH [3] [kJ/mol]
9.2	-19.2	DnaT N-terminal core domain (domain or fragment)	–	–
–	–	Escherichia coli DnaT protein (natural protein, E. coli, UniProt P0A8J2 1-179, looked up) MSSRVLTPDVVGIDALVHDHQTVLAKAEGGVVAVFANNAPAFYAVTPARLAELLALEEKLARPGSDVALDDQLYQEPQAAPVAVPMGKFAMYPDWQPDADFIRLAALWGVALREPVTTEELASFIAYWQAEGKVFHHVQWQQKLARSLQIGRASNGGLPKRDVNTVSEPDSQIPPGFRG	3	-62.8 ± 8.37
